The text below walks through data of US20240158494A1 (Biogen, published 2024).

Like-named read-outs stand apart in the source and are kept apart here.

The target of assay [1] is T1, recombinant human TfR1 extracellular domain, His-tagged (human, UniProt P02786 89-760).
T1 construct: also called Human TfR1 ECD; human TfR1 ECD-His
In words: SPR, TfR1 ECD-His captured, Fab injected, 1:1 fit.

The target in assay [2] is T2, recombinant cynomolgus monkey TfR1 extracellular domain, His-tagged (cynomolgus monkey, UniProt Q5RDH6 87-760 (Pongo abelii entry)).
T2 construct: also called Cyno TfR1 ECD; cyno TfR1 ECD-His
In words: SPR, TfR1 ECD-His captured, Fab injected, 1:1 fit. A general note: Surface plasmon resonance follows binding to a sensor surface in real time, without labels.

The target of assay [3] is T1, recombinant human TfR1 extracellular …. In words: SPR, TfR1 ECD-His captured, Fab 50 and 500 nM, no transferrin.
For assay [4], the target named is T2, recombinant cynomolgus monkey TfR1 …. The description is as above.
The target of assay [5] is T1, recombinant human TfR1 extracellular …. Description: SPR, TfR1 ECD-His captured, in the presence of 1 mM holo human transferrin.
Assay [6] addresses T2, recombinant cynomolgus monkey TfR1 …. Described as above.
In assay [7] the target is T3, human transferrin receptor 1 (TfR1), full length, expressed on cells (human, UniProt P02786 1-760).
T3 construct: also called human TfR1; huTfR
Description: FACS on Ba/F3 cells, Fab supernatant.

Assay [8] concerns the target T4, cynomolgus monkey transferrin receptor 1 (TfR1), full length, expressed on cells (cynomolgus monkey, UniProt Q5RDH6 1-760 (Pongo abelii entry)).
T4 construct: also called cyno TfR1; cyTfR
Description: FACS on Ba/F3 cells, Fab supernatant.

Assay [9] addresses T3, human transferrin receptor 1 (TfR1), …. In words: FACS on Ba/F3 cells, Fab supernatant. The source holds these as a separate data set.
Assay [10] concerns the target T4, cynomolgus monkey transferrin receptor …. In words: FACS on Ba/F3 cells, Fab supernatant. The source holds these as a separate data set.

B1: Rabbit ANTIBODY-B chi Fab (Fab, V domains shown)
VH: QSLEESGGGLVQPEGSLTLTCKASGFSFSNSYWICWVRQAPGKGLEWIGCINTDADSTNYASWARGRFTISKTSSTTVTLQMTSLTAADTASYFCARQNNVFDPGYNLWGPGTLVTVSS
VL: ELVLTQTPASVSEAVGGTVTIKCQASQNIGSNLAWYQQKPGQPPKLLIYDASKLASGVPSRFSGSGSGTEFTLTISDLECADAATYYCQCTVRGGAYGNAFGGGTEVVVK
notes: chimeric Fab, rabbit variable regions; constant regions of the Fab not specified (chimeric antibodies were made with a human IgG1 framework); also called chimeric rabbit Fab fragment of RabANTIBODY-B
The Kd is the constant that tells how readily two partners part at equilibrium. The koff is a measure of how fast the partners let go of each other. Broadly, the kon is the second-order rate constant of association. For B1, the Kd in assay [1] was 5.8 nM; in assay [2], 1.5 nM; in [3], 12 nM; in [4], 3.8 nM; in assay [5] it was 8.2 nM; in assay [6], 3.5 nM. Also, the koff came out at 0.000573 s⁻¹ in assay [1]; 0.000436 s⁻¹ in assay [2]; 0.0018 s⁻¹ in assay [3]; 0.00095 s⁻¹ in [4]; 0.0015 s⁻¹ in [5]; 0.00094 s⁻¹ in [6]. The kon in [1] was 99200 M⁻¹ s⁻¹; in [2] it was 283000 M⁻¹ s⁻¹; in [3] it was 140000 M⁻¹ s⁻¹; in assay [4], 250000 M⁻¹ s⁻¹; in assay [5], 180000 M⁻¹ s⁻¹; in assay [6], 270000 M⁻¹ s⁻¹.

B2: Rabbit ANTIBODY-A chi Fab (Fab, V domains shown)
VH: QSLEESGGGLVQPGASLTLTCKASGIDFSSSGYMCWVRQAPGKGLEWIGCIYTYSSNTYYASWAKGRFTISKTSSTTVTLQMTSLTAADTATYFCARGTYGYTGYTYTMGYFSLWGPGTLVTVSS
VL: ELDMTQTPASVEAAVGGTVTIKCQASQNINSYLAWYQQKPGQPPKLLIYRASTLASGVPSRFKGSGSGTEFTLTISDLECADAATYYCQSYYYSGSSNYNAFGGGTELEIL
notes: chimeric Fab, rabbit variable regions; constant regions of the Fab not specified (chimeric antibodies were made with a human IgG1 framework); also called chimeric rabbit Fab fragment of RabANTIBODY-A
B2: the Kd in assay [1] came out at 5.2 nM; in assay [2] it was 29 nM; in [3], 7 nM; in assay [4], 43 nM; in assay [5], 6.8 nM; in [6] it was 43 nM. In addition, the koff in [1] was 0.00101 s⁻¹; in assay [2] it was 0.00925 s⁻¹; in [3], 0.0012 s⁻¹; in assay [4], 0.01 s⁻¹; in assay [5] it was 0.0012 s⁻¹; in assay [6], 0.01 s⁻¹. Besides, the kon in assay [1] came to 192000 M⁻¹ s⁻¹; in assay [2] it was 317000 M⁻¹ s⁻¹; in [3], 170000 M⁻¹ s⁻¹; in assay [4], 230000 M⁻¹ s⁻¹; in assay [5] it was 170000 M⁻¹ s⁻¹; in [6] it was 230000 M⁻¹ s⁻¹.

B3: TfRANTIBODY-B HC-H1(HA) hIgG1Fab′(1C/LC-L2 hKappa (Fab, V domains shown)
VH: QSLVESGGGVVQPGRSLRLSCAASGFSFSNSYWIHWVRQAPGKGLEWVAAINTDADSTNYADSVKGRFTISKDNSKNTVYLQMNSLRAEDTAVYYCARQNNVFDPGYNLWGQGTLVTVSS
VL: ELVLTQSPSTLSASVGDRVTITCRASQNIGSNLAWYQQKPGKAPKLLIYDASKLESGVPSRFSGSGSGTEFTLTISSLQPDDFATYYCQCTVRGGAYGNAFGGGTKVEIKR
notes: also called ANTIBODY-B H1(HA)/L2
Broadly, the EC50 is the concentration giving half of the maximal effect. For B3, the EC50 in assay [7] was determined as 18.2 nM; in assay [8], 7.1 nM.

B4: TfR1 ANTIBODY-B HC-H2 hIgG1 Fab′(1C)/LC-L2 hKappa (Fab, V domains shown)
VH: QSLVESGGGVVQPGRSLRLSCKASGFSFSNSYWIAWVRQAPGKGLEWVAAINTDADSTNYADSVKGRFTISKDSSTTVYLQMNSLRAEDTAVYYCARQNNVFDPGYNLWGQGTLVTVSS
VL: ELVLTQSPSTLSASVGDRVTITCRASQNIGSNLAWYQQKPGKAPKLLIYDASKLESGVPSRFSGSGSGTEFTLTISSLQPDDFATYYCQCTVRGGAYGNAFGGGTKVEIKR
notes: also called ANTIBODY-B H2/L2
In the case of B4, in [9], the EC50 came to 10.2 nM. In addition, a half-maximal effect in assay [10] (EC50) was put at 7.7 nM. In assay [1], the Kd is 39.4 nM, the koff turned out to be 0.00328 s⁻¹ and the kon was determined as 83200 M⁻¹ s⁻¹. Further, in assay [2], the Kd was found to be 8.7 nM, the koff is 0.00113 s⁻¹ and the kon came out at 129000 M⁻¹ s⁻¹.

B5: TfR1 ANTIBODY-B HC-H0 hIgG1 Fab′(1C)/LC-L2 hKappa (Fab, V domains shown)
VH: QVQLVESGGGVVQPGRSLRLSCAASGFSFSNSYWIAWVRQAPGKGLEWVAAINTDADSTNYADSVKGRFTISRDNSKNTLYLQMNSLRAEDTAVYYCARQNNVFDPGYNLWGQGTLVTVSS
VL: ELVLTQSPSTLSASVGDRVTITCRASQNIGSNLAWYQQKPGKAPKLLIYDASKLESGVPSRFSGSGSGTEFTLTISSLQPDDFATYYCQCTVRGGAYGNAFGGGTKVEIKR
notes: also called ANTIBODY-B H0/L2
Consider B5, for which the EC50 in [9] is 168 nM; in [10], 44.5 nM.

B6: TfR1 ANTIBODY-B HC-H1 hIgG1 Fab′(1C)/LC-L2 hKappa (Fab, V domains shown)
VH: QSLVESGGGVVQPGRSLRLSCAASGFSFSNSYWIAWVRQAPGKGLEWVAAINTDADSTNYADSVKGRFTISKDNSKNTVYLQMNSLRAEDTAVYYCARQNNVFDPGYNLWGQGTLVTVSS
VL: ELVLTQSPSTLSASVGDRVTITCRASQNIGSNLAWYQQKPGKAPKLLIYDASKLESGVPSRFSGSGSGTEFTLTISSLQPDDFATYYCQCTVRGGAYGNAFGGGTKVEIKR
notes: also called ANTIBODY-B H1/L2
The molecule B6 had an EC50 in assay [9] of 9.6 nM. For the same molecule, it took 4.9 nM to reach a half-maximal effect in assay [10] (EC50). Besides, in [1], the Kd was found to be 47.8 nM, the koff was 0.00453 s⁻¹ and the kon stood at 94700 M⁻¹ s⁻¹. Besides, in [2], the Kd was found to be 12 nM, the off-rate constant (koff) stood at 0.00105 s⁻¹ and the kon is 88300 M⁻¹ s⁻¹.

B7: TfRANTIBODY-B HC-H1(SV) hIgG1Fab′(1C)/LC-L2 hKappa (Fab, V domains shown)
VH: QSLVESGGGVVQPGRSLRLSCAASGFSFSNSYWISWVRQAPGKGLEWVAVINTDADSTNYADSVKGRFTISKDNSKNTVYLQMNSLRAEDTAVYYCARQNNVFDPGYNLWGQGTLVTVSS
VL: ELVLTQSPSTLSASVGDRVTITCRASQNIGSNLAWYQQKPGKAPKLLIYDASKLESGVPSRFSGSGSGTEFTLTISSLQPDDFATYYCQCTVRGGAYGNAFGGGTKVEIKR
notes: also called ANTIBODY-B H1(SV)/L2
On to B7, for which the results for the concentration for a half-maximal effect (EC50) in assay [7] and in assay [8] were 98.6 nM and 30 nM, respectively.

B8: TfRANTIBODY-B HC-H1(SY) hIgG1Fab′(1C)/LC-L2 hKappa (Fab, V domains shown)
VH: QSLVESGGGVVQPGRSLRLSCAASGFSFSNSYWISWVRQAPGKGLEWVAYINTDADSTNYADSVKGRFTISKDNSKNTVYLQMNSLRAEDTAVYYCARQNNVFDPGYNLWGQGTLVTVSS
VL: ELVLTQSPSTLSASVGDRVTITCRASQNIGSNLAWYQQKPGKAPKLLIYDASKLESGVPSRFSGSGSGTEFTLTISSLQPDDFATYYCQCTVRGGAYGNAFGGGTKVEIKR
notes: also called ANTIBODY-B H1(SY)/L2
For the molecule B8, the EC50 in assay [7] is 113 nM; in [8] it was above 55 nM.

B9: TfR1 ANTIBODY-B HC-H3 hIgG1 Fab′(1C)/LC-L2 hKappa (Fab, V domains shown)
VH: QSLVESGGGVVQPGRSLRLSCAASGFSFSNSYWIAWVRQAPGKGLEWVAAINTDADSTNYASWARGRFTISKDNSKNTLYLQMNSLRAEDTAVYYCARQNNVFDPGYNLWGQGTLVTVSS
VL: ELVLTQSPSTLSASVGDRVTITCRASQNIGSNLAWYQQKPGKAPKLLIYDASKLESGVPSRFSGSGSGTEFTLTISSLQPDDFATYYCQCTVRGGAYGNAFGGGTKVEIKR
notes: also called ANTIBODY-B H3/L2
For B9, the EC50 in assay [9] came out at 15.7 nM. In addition, in [10], a half-maximal response (EC50) required 5.7 nM. Moreover, in [1], the Kd worked out at 65 nM, the koff was 0.00595 s⁻¹ and the kon was 91500 M⁻¹ s⁻¹. For the same molecule, in assay [2], the Kd turned out to be 12 nM, the koff was found to be 0.00172 s⁻¹ and the kon was 143000 M⁻¹ s⁻¹.

B10: TfR1 ANTIBODY-B HC-H0C hIgG1 Fab′(1C)/LC-L2 hKappa (Fab, V domains shown)
VH: QVQLVESGGGVVQPGRSLRLSCAASGFSFSNSYWICWVRQAPGKGLEWVGCINTDADSTNYADSVKGRFTISRDNSKNTLYLQMNSLRAEDTAVYYCARQNNVFDPGYNLWGQGTLVTVSS
VL: ELVLTQSPSTLSASVGDRVTITCRASQNIGSNLAWYQQKPGKAPKLLIYDASKLESGVPSRFSGSGSGTEFTLTISSLQPDDFATYYCQCTVRGGAYGNAFGGGTKVEIKR
notes: also called ANTIBODY-B H0C/L2
Turning to B10, a half-maximal response in assay [9] (EC50) required 9.3 nM. In assay [10], this molecule registered an EC50 of 5.5 nM. Further, in assay [1], the Kd was found to be 14.1 nM, the koff was 0.00343 s⁻¹ and the kon was 244000 M⁻¹ s⁻¹. In [2], the Kd stood at 6.5 nM, the koff was determined as 0.00136 s⁻¹ and the kon amounted to 210000 M⁻¹ s⁻¹.

B11: TfRANTIBODY-B HC-H1(SR) hIgG1Fab′(1C)/LC-L2 hKappa (Fab, V domains shown)
VH: QSLVESGGGVVQPGRSLRLSCAASGFSFSNSYWISWVRQAPGKGLEWVARINTDADSTNYADSVKGRFTISKDNSKNTVYLQMNSLRAEDTAVYYCARQNNVFDPGYNLWGQGTLVTVSS
VL: ELVLTQSPSTLSASVGDRVTITCRASQNIGSNLAWYQQKPGKAPKLLIYDASKLESGVPSRFSGSGSGTEFTLTISSLQPDDFATYYCQCTVRGGAYGNAFGGGTKVEIKR
notes: also called ANTIBODY-B H1(SR)/L2
As for B11, the binding result in [7] and in [8] was “no binding” in each case.
